Test results as given in the supplement of paper PMC5998384.

How the values were obtained:
HeLa Kyoto [1] = experiment: melting temperature (median over replicates), in situ; higher = more thermally stable
HeLa Kyoto [2] = experiment: thermal stability score vs G1/S (z-score of summed log2 fold changes over temperatures); higher = more thermally stable than in G1/S
HeLa Kyoto [3] = experiment: solubility change mitosis vs G1/S (difference of NP-40 vs SDS log2 ratios) (log2 ratio difference); higher = more soluble in mitosis
HeLa Kyoto [4] = experiment: solubility in G1/S (NP-40 vs SDS abundance) (log2 ratio); higher = more soluble; details: cell cycle stage: G1/S
[5] = cell cycle stage: early G1 (4.5 h after nocodazole release)
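Wherever melting temperature (median over replicates), in situ is given: HeLa Kyoto cells synchronized by double thymidine or nocodazole block, proteins quantified by TMT10plex mass spectrometry, three independent biological replicates.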
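Wherever solubility change mitosis vs G1/S (difference of NP-40 vs SDS log2 ratios) is given: synchronized HeLa Kyoto cells (double thymidine block for G1/S, nocodazole release for mitosis), protein amounts in NP-40 versus SDS lysates quantified by mass spectrometry, three biological replicates.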
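Wherever solubility in G1/S (NP-40 vs SDS abundance) is given: HeLa Kyoto cells arrested at G1/S by double thymidine block, proteins quantified by TMT10plex mass spectrometry in mild NP-40 versus SDS extracts, three biological replicates.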
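Wherever thermal stability score vs G1/S (z-score of summed log2 fold changes over temperatures) is given: synchronized HeLa Kyoto cells, proteins quantified by TMT10plex mass spectrometry, three biological replicates, mitosis taken 0.5 h after nocodazole release, G1/S directly after double thymidine block.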

Sequence: MDGKRRPGPGPGVPPKRARGGLWDDDDAPRPSQFEEDLALMEEMEAEHRLQEQEEEELQSVLEGVADGQVPPSAIDPRWLRPTPPALDPQTEPLIFQQLEIDHYVGPAQPVPGGPPPSRGSVPVLRAFGVTDEGFSVCCHIHGFAPYFYTPAPPGFGPEHMGDLQRELNLAISRDSRGGRELTGPAVLAVELCSRESMFGYHGHGPSPFLRITVALPRLVAPARRLLEQGIRVAGLGTPSFAPYEANVDFEIRFMVDTDIVGCNWLELPAGKYALRLKEKATQCQLEADVLWSDVVSHPPEGPWQRIAPLRVLSFDIECAGRKGIFPEPERDPVIQICSLGLRWGEPEPFLRLALTLRPCAPILGAKVQSYEKEEDLLQAWSTFIRIMDPDVITGYNIQNFDLPYLISRAQTLKVQTFPFLGRVAGLCSNIRDSSFQSKQTGRRDTKVVSMVGRVQMDMLQVLLREYKLRSYTLNAVSFHFLGEQKEDVQHSIITDLQNGNDQTRRRLAVYCLKDAYLPLRLLERLMVLVNAVEMARVTGVPLSYLLSRGQQVKVVSQLLRQAMHEGLLMPVVKSEGGEDYTGATVIEPLKGYYDVPIATLDFSSLYPSIMMAHNLCYTTLLRPGTAQKLGLTEDQFIRTPTGDEFVKTSVRKGLLPQILENLLSARKRAKAELAKETDPLRRQVLDGRQLALKVSANSVYGFTGAQVGKLPCLEISQSVTGFGRQMIEKTKQLVESKYTVENGYSTSAKVVYGDTDSVMCRFGVSSVAEAMALGREAADWVSGHFPSPIRLEFEKVYFPYLLISKKRYAGLLFSSRPDAHDRMDCKGLEAVRRDNCPLVANLVTASLRRLLIDRDPEGAVAHAQDVISDLLCNRIDISQLVITKELTRAASDYAGKQAHVELAERMRKRDPGSAPSLGDRVPYVIISAAKGVAAYMKSEDPLFVLEHSLPIDTQYYLEQQLAKPLLRIFEPILGEGRAEAVLLRGDHTRCKTVLTGKVGGLLAFAKRRNCCIGCRTVLSHQGAVCEFCQPRESELYQKEVSHLNALEERFSRLWTQCQRCQGSLHEDVICTSRDCPIFYMRKKVRKDLEDQEQLLRRFGPPGPEAW [POLD1]
- melting temperature (HeLa Kyoto [1]; cell cycle stage: G1/S): 48.3 °C
- melting temperature (HeLa Kyoto [1]; cell cycle stage: mitosis): 49.1 °C
- thermal stability score (HeLa Kyoto [2]; [5]): 5.56
- thermal stability score (HeLa Kyoto [2]; cell cycle stage: mitosis): 6.68
- solubility change mitosis (log2) (HeLa Kyoto [3]): -0.101
- solubility in G1/S (log2) (HeLa Kyoto [4]): -0.0376

Sequence: MSLNPPIFLKRSEENSSKFVETKQSQTTSIASEDPLQNLCLASQEVLQKAQQSGRSKCLKCGGSRMFYCYTCYVPVENVPIEQIPLVKLPLKIDIIKHPNETDGKSTAIHAKLLAPEFVNIYTYPCIPEYEEKDHEVALIFPGPQSISIKDISFHLQKRIQNNVRGKNDDPDKPSFKRKRTEEQEFCDLNDSKCKGTTLKKIIFIDSTWNQTNKIFTDERLQGLLQVELKTRKTCFWRHQKGKPDTFLSTIEAIYYFLVDYHTDILKEKYRGQYDNLLFFYSFMYQLIKNAKCSGDKETGKLTH [DTWD1]
- melting temperature (HeLa Kyoto [1]; cell cycle stage: G1/S): 50.9 °C
- melting temperature (HeLa Kyoto [1]; cell cycle stage: mitosis): 50.6 °C
- thermal stability score (HeLa Kyoto [2]; [5]): 1.51
- thermal stability score (HeLa Kyoto [2]; cell cycle stage: mitosis): 1.96
- solubility change mitosis (log2) (HeLa Kyoto [3]): -0.213
- solubility in G1/S (log2) (HeLa Kyoto [4]): 0.19

Sequence: MSSAPRSPTPRPRRMKKDESFLGKLGGTLARKRRAREVSDLQEEGKNAINSPMSPALVDVHPEDTQLEENEERTMIDPTSKEDPKFKELVKVLLDWINDVLVEERIIVKQLEEDLYDGQVLQKLLEKLAGCKLNVAEVTQSEIGQKQKLQTVLEAVHDLLRPRGWALRWSVDSIHGKNLVAILHLLVSLAMHFRAPIRLPEHVTVQVVVVRKREGLLHSSHISEELTTTTEMMMGRFERDAFDTLFDHAPDKLSVVKKSLITFVNKHLNKLNLEVTELETQFADGVYLVLLMGLLEDYFVPLHHFYLTPESFDQKVHNVSFAFELMLDGGLKKPKARPEDVVNLDLKSTLRVLYNLFTKYKNVE [PARVB]
- melting temperature (HeLa Kyoto [1]; cell cycle stage: mitosis): 50.4 °C
- thermal stability score (HeLa Kyoto [2]; [5]): 0.418
- thermal stability score (HeLa Kyoto [2]; cell cycle stage: mitosis): 0.496
- solubility change mitosis (log2) (HeLa Kyoto [3]): -0.137
- solubility in G1/S (log2) (HeLa Kyoto [4]): 0.0443
